Laboratory results as given in patent US20150344570A1 (published 2015).

B1: GpH7-A5/GpH7-B3 variant I336_13S/GpL16-k0 (antibody, human IgG1, kappa)
heavy 1: not shown
heavy 2: not shown
light: DIVMTQSPLSLPVTPGEPASISCQASESLVHSNRNTYLHWYLQKPGQSPQLLIYKVSNRFSGVPDRFSGSGSGTDFTLKISRVEAEDVGVYYCSQNTHVPPTFGQGTKVEIERTVAAPSVFIFPPSDEQLKSGTASVVCLLNNFYPREAKVQWKVDNALQSGNSQESVTEQDSKDSTYSLSSTLTLSKADYEKHKVYACEVTHQGLSSPVTKSFNRGEC
notes: Heterodimerized anti-glypican-3 IgG1 (He Ab); The mutation is in the GpH7-B3 chain only; also called He Ab with I336S in GpH7-B3
B2: GpH7-A5/GpH7-B3 variant K334_10E/GpL16-k0 (antibody, human IgG1, kappa)
heavy 1: not shown
heavy 2: not shown
light: B1 light
notes: Heterodimerized anti-glypican-3 IgG1 (He Ab); The mutation is in the GpH7-B3 chain only; also called He Ab with K334E in GpH7-B3
B3: GpH7-A5/GpH7-B3 variant K334_14T/GpL16-k0 (antibody, human IgG1, kappa)
heavy 1: not shown
heavy 2: not shown
light: B1 light
notes: Heterodimerized anti-glypican-3 IgG1 (He Ab); The mutation is in the GpH7-B3 chain only; also called He Ab with K334T in GpH7-B3
B4: GpH7-A5/GpH7-B3 variant I336_19Q/GpL16-k0 (antibody, human IgG1, kappa)
heavy 1: not shown
heavy 2: not shown
light: B1 light
notes: Heterodimerized anti-glypican-3 IgG1 (He Ab); The mutation is in the GpH7-B3 chain only; also called He Ab with I336Q in GpH7-B3
B5: GpH7-A5/GpH7-B3 variant K334_13S/GpL16-k0 (antibody, human IgG1, kappa)
heavy 1: not shown
heavy 2: not shown
light: B1 light
notes: Heterodimerized anti-glypican-3 IgG1 (He Ab); The mutation is in the GpH7-B3 chain only; also called He Ab with K334S in GpH7-B3
B6: GpH7-A5/GpH7-B3 variant I336_14T/GpL16-k0 (antibody, human IgG1, kappa)
heavy 1: not shown
heavy 2: not shown
light: B1 light
notes: Heterodimerized anti-glypican-3 IgG1 (He Ab); The mutation is in the GpH7-B3 chain only; also called He Ab with I336T in GpH7-B3
B7: GpH7-A5/GpH7-B3 variant I336_15Y/GpL16-k0 (antibody, human IgG1, kappa)
heavy 1: not shown
heavy 2: not shown
light: B1 light
notes: Heterodimerized anti-glypican-3 IgG1 (He Ab); The mutation is in the GpH7-B3 chain only; also called He Ab with I336Y in GpH7-B3
B8: GpH7-A5/GpH7-B3 variant K334_15Y/GpL16-k0 (antibody, human IgG1, kappa)
heavy 1: not shown
heavy 2: not shown
light: B1 light
notes: Heterodimerized anti-glypican-3 IgG1 (He Ab); The mutation is in the GpH7-B3 chain only; also called He Ab with K334Y in GpH7-B3
B9: GpH7-A5/GpH7-B3 variant K334_20W/GpL16-k0 (antibody, human IgG1, kappa)
heavy 1: not shown
heavy 2: not shown
light: B1 light
notes: Heterodimerized anti-glypican-3 IgG1 (He Ab); The mutation is in the GpH7-B3 chain only; also called He Ab with K334W in GpH7-B3
B10: GpH7-A5/GpH7-B3 variant K334_19Q/GpL16-k0 (antibody, human IgG1, kappa)
heavy 1: not shown
heavy 2: not shown
light: B1 light
notes: Heterodimerized anti-glypican-3 IgG1 (He Ab); The mutation is in the GpH7-B3 chain only; also called He Ab with K334Q in GpH7-B3
B11: GpH7-A5/GpH7-B3 variant (H268D)/GpL16-k0 (antibody, human IgG1, kappa)
heavy 1: not shown
heavy 2: not shown
light: B1 light
notes: also called He Ab H268_09D
B12: GpH7-A5/GpH7-B3 variant (A330F)/GpL16-k0 (antibody, human IgG1, kappa)
heavy 1: not shown
heavy 2: not shown
light: B1 light
notes: also called He Ab A330_04F
B13: GpH7-A5/GpH7-B3 variant (K326D)/GpL16-k0 (antibody, human IgG1, kappa)
heavy 1: not shown
heavy 2: not shown
light: B1 light
notes: also called He Ab K326_09D
B14: GpH7-A5/GpH7-B3 variant (A330P)/GpL16-k0 (antibody, human IgG1, kappa)
heavy 1: not shown
heavy 2: not shown
light: B1 light
notes: also called He Ab A330_05P
B15: GpH7-A5/GpH7-B3 variant (K334D)/GpL16-k0 (antibody, human IgG1, kappa)
heavy 1: not shown
heavy 2: not shown
light: B1 light
notes: also called He Ab K334_09D
B16: GpH7-A5/GpH7-B3 variant (A330M)/GpL16-k0 (antibody, human IgG1, kappa)
heavy 1: not shown
heavy 2: not shown
light: B1 light
notes: also called He Ab A330_06M
B17: GpH7-A5/GpH7-B3 variant (K326I)/GpL16-k0 (antibody, human IgG1, kappa)
heavy 1: not shown
heavy 2: not shown
light: B1 light
notes: also called He Ab K326_07I
B18: GpH7-A5/GpH7-B3-15-02A/GpL16-k0 (antibody, human IgG1, kappa)
heavy 1: not shown
heavy 2: not shown
light: B1 light
notes: also called GpH7-A5/GpH7-B3 variant (S298A)/GpL16-k0; He Ab S298_02A
B19: GpH7-A5/GpH7-B3 variant (K334I)/GpL16-k0 (antibody, human IgG1, kappa)
heavy 1: not shown
heavy 2: not shown
light: B1 light
notes: also called He Ab K334_07I
B20: GpH7-A5/GpH7-B3 variant (H268A)/GpL16-k0 (antibody, human IgG1, kappa)
heavy 1: not shown
heavy 2: not shown
light: B1 light
notes: also called He Ab H268_02A
B21: GpH7-A5/GpH7-B3 variant (K326T)/GpL16-k0 (antibody, human IgG1, kappa)
heavy 1: not shown
heavy 2: not shown
light: B1 light
notes: also called He Ab K326_14T
B22: GpH7-A5/GpH7-B3 variant (H268E)/GpL16-k0 (antibody, human IgG1, kappa)
heavy 1: not shown
heavy 2: not shown
light: B1 light
notes: also called He Ab H268_10E
B23: GpH7-A5/GpH7-B3 variant (K334E)/GpL16-k0 (antibody, human IgG1, kappa)
heavy 1: not shown
heavy 2: not shown
light: B1 light
notes: also called He Ab K334_10E

target: T1, FcγRIIIa extracellular domain with C-terminal His tag (human, UniProt P08637 17-208); assay: SPR (Biacore); He/Con for FcγRIIIa divided by He/Con for FcγRIIb
T1 construct: extracellular domain; also called FcgRIIIa; 3a; not shown: His tag at the C terminus
Procedure: (§1) The heterodimerized antibodies He Abs in which one of the H chains was introduced with an alteration were assayed for their binding activities to each activating FcγR and inhibitory FcγR according to the method described in Example 4. […] The activating FcγRs in FIGS. 26, 27, 28, and 29 are FcγRIa, FcγRIIa (R), FcγRIIa (H), and FcγRIIIa, respectively.
(§2) Analysis of interaction between objective antibody and the FcγR was carried out using Biacore T100 (GE Healthcare). HBS-EP+ (GE Healthcare) was used as the running buffer, and the measurement temperature was set to 25° C. Chips produced by immobilizing the antigen peptide by the amine coupling method to a Series S Sencor Chip CM5 (GE Healthcare), or alternatively, chips produced by allowing preliminarily biotinylated antigen peptides to interact with and immobilize onto a Series S Sensor Chip SA (certified) (GE Healthcare) were used. Antibodies of interest were captured onto an antigen peptide-immobilized chip, and allowed to interact to each FcγR diluted with running buffer. To regenerate and repeatedly use the chip, the antibodies captured on the chip were washed off by reacting 10 mM glycine-HCl, pH 1.5.

T1 sequence (P08637 17-208): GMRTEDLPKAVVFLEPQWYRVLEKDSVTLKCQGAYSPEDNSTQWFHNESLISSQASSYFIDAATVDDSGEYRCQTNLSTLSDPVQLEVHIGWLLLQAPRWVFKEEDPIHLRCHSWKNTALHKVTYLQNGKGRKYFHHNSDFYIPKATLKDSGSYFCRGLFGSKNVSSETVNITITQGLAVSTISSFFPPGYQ

| Binder | He_3a/2b (IIIa/IIb) [ratio] |
| --- | --- |
| B1 | 1.21 |
| B2 | 1.58 |
| B3 | 1.23 |
| B4 | 1.59 |
| B5 | 1.31 |
| B6 | 1.21 |
| B7 | 1.28 |
| B8 | 1.29 |
| B9 | 1.23 |
| B10 | 1.25 |

target: T2, FcgRIIIa F (FcγRIIIa type F) extracellular domain with C-terminal His tag (human, UniProt P08637 17-208); assay: SPR (Biacore); relative binding activity of the heterodimerized antibody with the alteration in one H chain
T2 construct: extracellular domain; also called FcγRIIIa F; 3aF; not shown: His tag attached to the C terminus
T2 sequence (P08637 17-208): as above

| Binder | He/Con_3aF |
| --- | --- |
| B11 | 195 % of GpH7-A5/GpH7-B3/GpL16-k0 (= 100) |
| B12 | 144 % of GpH7-A5/GpH7-B3/GpL16-k0 (= 100) |
| B13 | 148 % of GpH7-A5/GpH7-B3/GpL16-k0 (= 100) |
| B14 | 152 % of GpH7-A5/GpH7-B3/GpL16-k0 (= 100) |
| B15 | 164 % of GpH7-A5/GpH7-B3/GpL16-k0 (= 100) |
| B16 | 139 % of GpH7-A5/GpH7-B3/GpL16-k0 (= 100) |
| B17 | 153 % of GpH7-A5/GpH7-B3/GpL16-k0 (= 100) |
| B18 | 151 % of GpH7-A5/GpH7-B3/GpL16-k0 (= 100) |
| B19 | 156 % of GpH7-A5/GpH7-B3/GpL16-k0 (= 100) |
| B20 | 121 % of GpH7-A5/GpH7-B3/GpL16-k0 (= 100) |
| B21 | 140 % of GpH7-A5/GpH7-B3/GpL16-k0 (= 100) |
| B22 | 184 % of GpH7-A5/GpH7-B3/GpL16-k0 (= 100) |
| B23 | 186 % of GpH7-A5/GpH7-B3/GpL16-k0 (= 100) |

target: T3, FcγRIIb extracellular domain with C-terminal His tag (human, UniProt P31994 43-217); assay: SPR (Biacore), antibody captured on antigen-peptide chip, FcγR as analyte; relative binding amount
T3 construct: extracellular domain; Soluble receptor expressed in FreeStyle293 cells and used as analyte in Biacore; also called FcgRIIb; 2b; not shown: His tag at the C terminus
T3 sequence (looked up): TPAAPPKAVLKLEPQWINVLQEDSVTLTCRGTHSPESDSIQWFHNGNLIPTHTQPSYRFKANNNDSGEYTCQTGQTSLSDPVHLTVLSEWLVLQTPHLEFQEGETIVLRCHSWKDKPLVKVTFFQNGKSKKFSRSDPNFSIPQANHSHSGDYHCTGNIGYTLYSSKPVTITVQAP
Procedure: as §1, §2

| Binder | He/Con_2b (IIb binding) |
| --- | --- |
| B1 | 83.7 relative, GpH7-A5/GpH7-B3/GpL16-k0 = 100 |
| B2 | 114 relative, GpH7-A5/GpH7-B3/GpL16-k0 = 100 |
| B3 | 115 relative, GpH7-A5/GpH7-B3/GpL16-k0 = 100 |
| B4 | 58.2 relative, GpH7-A5/GpH7-B3/GpL16-k0 = 100 |
| B5 | 111 relative, GpH7-A5/GpH7-B3/GpL16-k0 = 100 |
| B6 | 89.5 relative, GpH7-A5/GpH7-B3/GpL16-k0 = 100 |
| B7 | 68.2 relative, GpH7-A5/GpH7-B3/GpL16-k0 = 100 |
| B8 | 109 relative, GpH7-A5/GpH7-B3/GpL16-k0 = 100 |
| B9 | 104 relative, GpH7-A5/GpH7-B3/GpL16-k0 = 100 |
| B10 | 109 relative, GpH7-A5/GpH7-B3/GpL16-k0 = 100 |

target: T1, FcγRIIIa extracellular domain with …; assay: as above
Procedure: as §1, §2

| Binder | He/Con_3a (IIIa binding) |
| --- | --- |
| B1 | 102 relative, GpH7-A5/GpH7-B3/GpL16-k0 = 100 |
| B2 | 181 relative, GpH7-A5/GpH7-B3/GpL16-k0 = 100 |
| B3 | 141 relative, GpH7-A5/GpH7-B3/GpL16-k0 = 100 |
| B4 | 92.5 relative, GpH7-A5/GpH7-B3/GpL16-k0 = 100 |
| B5 | 145 relative, GpH7-A5/GpH7-B3/GpL16-k0 = 100 |
| B6 | 108 relative, GpH7-A5/GpH7-B3/GpL16-k0 = 100 |
| B7 | 87.3 relative, GpH7-A5/GpH7-B3/GpL16-k0 = 100 |
| B8 | 141 relative, GpH7-A5/GpH7-B3/GpL16-k0 = 100 |
| B9 | 128 relative, GpH7-A5/GpH7-B3/GpL16-k0 = 100 |
| B10 | 136 relative, GpH7-A5/GpH7-B3/GpL16-k0 = 100 |
